The record followed here is article PMC6234505.

The test deals with GST-SHP2 PTP DAQA (substrate trapping mutant D425A/Q506A). Kind of test: pull-down.

As to “YFP-GluN2B, tyrosine phosphorylated, in cell lysate (from UniProt Q00960 27-1482) (receptor)”, the fold more pulled down than by GST-SHP2 WT stood at 14 fold.
